Data published in the supplement of paper PMC9170038.

Legend:
MS2 coat protein [1] = test: apparent KD of MS2 coat protein, switch ON state; designed switch direction (-1 OFF switch, 1 ON switch): -1; higher = weaker reporter binding; details: FMN input: 0 or 200 uM; Eterna round: R93 (includes R88 designs)
Method in brief: (§1)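 With or without constant ligand, designed RNA switches in 100 mM Tris-HCl pH 7.5, 80 mM KCl and 4 mM MgCl2 were titrated with SNAP-549-labelled MS2 coat protein. Concentrations went up in twofold steps from 0.7 or 1.5 nM to 3 µM. The switches had been transcribed on-chip from Illumina sequencing clusters, and apparent KD is the per-design median of normalised cluster binding-curve fits.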

MS2 coat protein [2] = test: apparent KD of MS2 coat protein, switch OFF state (with FMN for OFF switches, without FMN for ON switches); designed switch direction (-1 OFF switch, 1 ON switch): -1; higher = weaker reporter binding; details: FMN input: 0 or 200 uM; Eterna round: R93 (includes R88 designs)
Method in brief: as §1

Sequence	apparent KD of MS2 coat protein (MS2 coat protein [1]) [nM]	apparent KD of MS2 coat protein (MS2 coat protein [2]) [nM]
AAAAAACAUGAGGAUCACCCAUGUAAGGAUAUGCUCGUGCGAAAAAGCACAAAAAAGAGCAGAAGGUACAAAAA [66%, Wbt, 40]	18.8	34.4
AAAAAACAUGAGGAUCACCCAUGUAAGGAUAUGCUGAAAAAACACUGGAAACAGUGCAGCAGAAGGUACAAAAA [66%, Wbt, 35]	21.5	27.2
AAAAAACAUGAGGAUCACCCAUGUCAGGAUAUCGAAAAGAAAAGAAAAGAAAGAAGAACGAGAAGGGACAAGAA [Menkaura]	29.3	24.5
AAAAAACAUGAGGAUCACCCAUGUCAGGAUAUGAACGAAAAUAAAUAAAAAUAAAAGUUCAGAAGGGACGAAAA [66%, Wbt, 17]	38	41.5
AAAAAACAUGAGGAUCACCCAUGUCAGGAUAUGCCAACCUAAAAAAAAAAAAAAAAACGUAGAAGGGACAAAAA [Bilbo Confounded 2 - Jieux - Exclusion 1]	28.7	23.5
AAAAAACAUGAGGAUCACCCAUGUGAGGAUAUACGAAAGUAGAAGGCACUAAAAAAAAAAAGAAGGAAAAAAAA [Meechl Ex1 R2 m0]	24.2	42.4
AAAAAACAUGAGGAUCACCCAUGUGAGGAUAUCCAGAAGGGAAUAAAAUAACACGAAAGGAGAAGGCACAAAAA [Ex 1 May 36]	34	31.7
AAAAAACAUGAGGAUCACCCAUGUGAGGAUAUCGUGCAGAAAAAAAAAAAAAACUGCACGAGAAGGCACAUGAA	38.9	105
AAAAAACAUGAGGAUCACCCAUGUGAGGAUAUCUGUAUUCAAUCCUCGGAUUGAAUACAGAGAAGGCACAUGAA [Ex1: 611]	34	330
AAAAAACAUGAGGAUCACCCAUGUGAGGAUAUGACUUAAAUAAAGAAAGAAGAAAUAGUCAGAAGGCACAAAUA [Mat - Mod of Nando]	28.6	42.9
AAAAAACAUGAGGAUCACCCAUGUGAGGAUAUGAUGAAAGAUUGAAAAAGGUUGAAAGUCAGAAGGUAUGUGAA [Exclusion 1.3]	30.4	35.7
AAAAAACAUGAGGAUCACCCAUGUGAGGAUAUGCUAAAAAAAUCCGCAUGAAAAAAUAGCAGAAGGCACAUAAA [PK2]	29.6	52.5
AAAAAACAUGAGGAUCACCCAUGUUAGGAUAUGCUAUGGAAAAUAAAAAUAAAACAUAGCAGAAGGGACAAAAA [Denovo 1]	21.3	32
AAAAAACAUGAGGAUCACCCAUGUUAGGAUAUUCCUAAAAAAAAAAAAAAAAAAAAUGGAAGAAGGGACAAAAA [excalibur 9]	21.2	20.6
AAAAACCUAGGAUAUACAUGAGGAUCACCCAUGUAAAGAAACAAAAAGGGAAACACAAGUAGAAGGAGGAAGAA [JR_Exc003_Sub1203]	22.6	27.4
AAAAACUGAGGAUAUACAUGAGGAUCACCCAUGUGAAAGAACGAAAAACGAAAAGCAAGUAGAAGGCAGAAAAA [Ruby 77]	20.9	26.1
AAAAAGAGAGGAUAUACAUGAGGAUCACCCAUGUAACAUUAAAUAAAUAAAAUAAAGUGUAGAAGGCUCAAAAA [65%, Moding Exclusion3-cac2, 24]	27.9	34.3
AAAAAGAGAGGAUAUACAUGAGGAUCACCCAUGUGAAAGACGAAAAAAAGUCUAAAGUGUAGAAGGCUCAAAAA [65%, Moding Exclusion3-cac2, 14]	25.3	104
AAAAAGAUAGGAUAUACGAACAUGUCAAAAGACGUGAAGGGACAUGAGGAUCACCCAUGUAGAAGGAUUAAAAA [JL Wide Open 39]	38.8	17.2
AAAAAGCGAGGAUAUACAUGAGGAUCACCCAUGUAAAAAAAAAGAGAUGAAACAUCAUGUAGAAGGCGCAAAAA [Excls3-I]	131	67.1

Sequence	apparent KD of MS2 coat protein (MS2 coat protein [1]) [nM]	apparent KD of MS2 coat protein (MS2 coat protein [2]) [nM]
AAAAAGCUAGGAUAUACGAAAAAAAAGGGUAGAAAAAAAAAACAUGAGGAUCACCCAUGUAGAAGGAGCAAAAA [Mat - Exclusion 2 - Tesla mod - D34]	51.5	103
AAAAAGGGAGGAUAUACAUGAGGAUCACCCAUGUAUCAGACGAAAAAGAGUCUGAAAUGUAGAAGGCCCAAAAA [65%, Moding Exclusion3-cac2, 2]	20.7	35.8
AAAAAGGUAGGAUAUACAUGAGGAUCACCCAUGUACAUAAAUGGAGAAAAAAACAGUUGUAGAAGGGCCAAAAA [Ex3 Malc#9]	41.7	34.5
AAAAAGGUAGGAUAUACAUGAGGAUCACCCAUGUCGCGGCGCGCGGACAGCCCGCCCUGUAGAAGGACCAAAAA [Default title]	35	28.6
AAAAAGUCAGGAUAUGUGGAAAAAAUAAAAAAAAUAAAAACACAGAAGGGACAUGAGGAUCACCCAUGUUAAAA [Ex 4 May 18]	45.4	35.1
AAAAAGUGAGGAUAUACGCUGAGGAGUAGACACAACCUGGCGUAGAAGGCACAUGAGGAUCACCCAUGUCCAAA [EX4 Malc#12]	24.3	41.5
AAAAAGUGAGGAUAUCGGAAAAAAAAAAAAAAAAAAAAAAACGAGAAGGCACAUGAGGAUCACCCAUGUAAAAA [all GC all the time + G boost - take 2]	42.2	45.6
AAAAAGUGAGGAUAUUCGGAUAGGAAAACGAAAACCUAUCCGAAGAAGGCACAUGAGGAUCACCCAUGUAAAGA [Mat - Exaclusion 4 - Eli mod - D40]	30.8	40.2
AAAAAUGGAGGAUAUACAUGAGGAUCACCCAUGUGAAACAAAAAAAAAAACAAAAAAAGUAGAAGGCCAAAAAA [Gilly Gone Silly 2 - Jieux - Exclusion 3]	36.7	53.6
AAAACACAUGAGGAUCACCCAUGUGAGGAUAUGCAAAACCCAUAUAAAAAGGGAAAAAGCAGAAGGCACAAAAA [wbt round 1 mod 12]	22.4	27.8
AAAACACAUGAGGAUCACCCAUGUGAGGAUAUGCUAGUGAAAAUAAAAAUAAAACAUAGCAGAAGGCACAAGGA [Amethyst 79]	43.7	45.8
AAAAUGUCAGGAUAUUCGGAUAGGAAAACGAAAACCUAUCCGAAGAAGGGACAUGAGGAUCACCCAUGUAAAAA [Starry Exclusion 4.2 (cataway round 1 mod)]	81.4	341
AAAAUGUGAGGAUAUGUACGAAAAAAUAAAAAAAUAAAAGUACAGAAGGCACAUGAGGAUCACCCAUGUGAAAA [EX4 396: Minimal 9]	28.3	79.1
AAACGUAGAGGAUAUACAGGGCUAUUACGAAAGUAAUAGAAACAUGAGGAUCACCCAUGUAGAAGGCUACGAAA [Mod2 of Meechl 64% 1]	162	67.9
AAACUACUAGGAUAUACAACGGUGUCCUAACUACUAAGAAAACAUGAGGAUCACCCAUGUAGAAGGAGUAGUGA [Lauslabe]	33.6	30.2
AAAGAUGGAGGAUAUACAUGAGGAUCACCCAUGUGGAAUCUAAAAUGGGAAAAAGAAAGUAGAAGGCCAUAAAA [Ex 3 May 40]	36.7	83.1
AAAGAUUGAGGAUAUACAUGAGGAUCACCCAUGUAAAAAAAAAAAAGGGUGGAAGAAAGUAGAAGGCAACAAAA [Ex 3 May 46]	80.6	284
AAAGCUGAAGGAUAUACUUGGAAAAAAAAAAAAAAAAAAAAACAUGAGGAUCACCCAUGUAGAAGGUCAGAUAA [Mat - Mod]	41.1	36.7
AAAGGGUCAGGAUAUCGAUGAAUAAUAAAACAAAGGAACAUCGAGAAGGGACAUGAGGAUCACCCAUGUAUAAC [May 80]	42.4	48.4
AAAUAGUUAGGAUAUACAUGAGGAUCACCCAUGUGGACUGAUGUCGCGUGAUUCAGUGGUAGAAGGGACUCAAA [EX2 Malc#36]	47.3	75
